# According to US20260209705A1, “ENGINEERED NATURAL KILLER CELLS AND RELATED METHODS” (ASTELLAS PHARMA INC., priority 2022, published 2026):
# T1: claudin 6 (CLDN6) (UniProt P56747)
# T1 sequence (looked up): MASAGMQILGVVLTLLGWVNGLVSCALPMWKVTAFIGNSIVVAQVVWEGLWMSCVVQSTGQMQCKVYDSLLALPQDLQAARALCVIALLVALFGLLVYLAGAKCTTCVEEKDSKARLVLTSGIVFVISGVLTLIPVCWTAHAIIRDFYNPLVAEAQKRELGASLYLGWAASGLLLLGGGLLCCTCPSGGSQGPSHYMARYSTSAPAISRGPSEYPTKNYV
# Assays:
# claudin 6 (CLDN6) = molecular target: T1, claudin 6 (CLDN6); test: cell-based or functional assay
# [1] = tested on: human PSC-derived engineered NK cells; test: effect of UM171 on NK differentiation (Step 2); assay type: cell-based; details: 35 nM UM171 versus no UM171
# Text: FIGS. 2A-2C are bar graphs illustrating the cell yield (FIG. 2A), percentage of CD56+CD45^+ cells (FIG. 2B), and cell viability (FIG. 2C) resulting from the method of producing human PSC-derived engineered NK cells (FcR-UDC I-NK cells) described herein.
# Parental and engineered UDC PSCs (collectively, “PSCs”) were thawed, expanded, and cultured in mTeSR™ (STEMCELL Technologies, Cambridge, MA) feeder-free, animal component-free media for up to seven days on vitronectin. The PSCs were dissociated into single cells and transferred into microwell plates and cultured in STEMdiff™ APEL™2 and Gibco® PFHM-II media (STEMCELL Technologies, Cambridge, MA; ThermoFisher Scientific, Waltham, MA) for fourteen days to differentiate into precursor cells (via embryoid bodies) capable of differentiating to hematopoietic cell types, endothelial cell types, and/or mesodermal derivatives. The media was supplemented with BMP4 (20 ng/ml), VEGF (20 ng/ml), and SCF (40 ng/ml). Half media changes were performed every other day starting on day 3. The embryoid bodies were replated on DLL4/Retronectin-coated T75 flasks to differentiate into NK cells. The embryoid bodies were cultured under feeder free conditions in differentiation media comprising SCF (20 ng/ml), IL-7 (20 ng/ml), IL-15 (10 ng/ml), Flt3L (10 ng/mL), IL-3 ([…]) and 35 nM UM171 for 21 days in modified DMEM/F12. […]
# [2] = tested on: Raji (Burkitt's lymphoma) cells; test: Raji i.p. tumor model, study of FIG. 23 (Table 2); assay type: in vivo, NSG mice; details: single agent alone, compared to untreated
# Experimental: FIG. 23 is a graphic of an efficacy study of FcR-UDC I-NK cells plus Rituximab in a Raji i.p. tumor model. NSG mice were irradiated and injected (i.p.) with Raji tumor cells (3×10^5). At day 4, FcR-UDC I-NK cells or PB-NK cells (each 5×10^6) with or without Rituximab (300 μg) was administered. At day 7, an additional dose of Rituximab (300 μg) was administered. Imaging/monitoring of the NSG mice occur at indicated time points through day 120.
# FIGS. 24A-24C illustrate (FIG. 24A) a survival curve and (FIGS. 24B-24C) tumor burden following the efficacy study of FIG. 23. […] In FIGS. 24B-24C, FcR-UDC I-NK cells plus Rituximab and PB-NK plus Rituximab provided a durable response in delaying tumor onset through day 60 in 50% of the mice.
# The efficacy of the UDC-NK cells against tumors in vivo was studied in a Raji intraperitoneal (i.p.) tumor model.
# In FIG. 23, NSG mice were irradiated and injected i.p. with Raji (Burkitt's lymphoma) cells (3×10^5 cells). Raji cells are resistant to NK cells in the absence of an anti-CD20 antibody. At day four, 5×10^6 FcR-UDC I-NK cells and/or Rituximab (300 μg) was administered to the NSG mice. At day 7, a second dose of Rituximab (300 μg) was administered. […] The NSG mice were imaged and assessed for survival, BLI (tumor burden), and body weight and other health conditions at various days through day 121. […]
"EC50 of ADCC (specific lysis of PA-1 cells by FcR-UDC I-NK cells, four-hour flow-based assay, antibody titrated) (claudin 6 (CLDN6)) [ng/mL]",Molecule,also measured
4.32,ASP1893 mAb (antibody),–
–,"Br.Br.Cn1nnc(-c2ccc3c(c2)[nH]c2nc(Cc4ccccc4)nc(N[C@H]4CC[C@H](N)CC4)c23)n1.O.O [UM171, (1r,4r)-N1-(2-benzyl-7-(2-methyl-2H-tetrazol-5-yl)-9H-pyrimidol [4,5-b]indol-4-yl)cyclohexane-1,4-diamine dihydrobromide dihydrate]",UDC-NK cell yield during NK differentiation [1]: improved UDC-NK cell yield
–,Rituximab,mean survival [2]: increased mean survival
8.49,"ASP1650 (antibody, from another filing, V domains shown) VH: EVQLQQSGPELVKPGASMKISCKASGYSFTGYTMNWVKQSHGKNLEWIGLINPYNGGTIYNQKFKGKATLTVDKSSSTAYMELLSLTSEDSAVYYCARDYGFVLDYWGQGTTLTVSS VL: IVLTQSPAIMSASPGEKVTITCSASSSVSYLHWFQQKPGTSPKLWVYSTSNLPSGVPARFGGSGSGTSYSLTISRMEAEDAATYYCQQRSIYPPWTFGGGTKLEIKR",–
